Results taken from paper PMC10908827, “Structural insight into an Arl1–ArfGEF complex involved in Golgi recruitment of a GRIP-domain golgin” (Nature Communications, 2024).

T1: ΔNT17 Q72L Arl1 in the Arl1–Gea2 complex (Saccharomyces cerevisiae, UniProt P38116, Q72L)
T1 construct: Arl1 lacking N-terminal 17 residues, Q72L, C-terminal 6xHis; full-length Gea2 (1459 residues, dimer), N-terminal 6xHis; both from E. coli NiCo21(DE3); two Arl1 on one Gea2 dimer; with ARF guanine-nucleotide exchange factor 2
T1 sequence (P38116 18-183 Q72L): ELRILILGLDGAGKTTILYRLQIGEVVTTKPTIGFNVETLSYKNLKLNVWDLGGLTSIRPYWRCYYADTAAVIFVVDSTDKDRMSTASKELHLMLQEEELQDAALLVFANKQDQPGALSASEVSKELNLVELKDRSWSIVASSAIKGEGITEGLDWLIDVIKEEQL
T1 sequence (P39993 1-1459 partner): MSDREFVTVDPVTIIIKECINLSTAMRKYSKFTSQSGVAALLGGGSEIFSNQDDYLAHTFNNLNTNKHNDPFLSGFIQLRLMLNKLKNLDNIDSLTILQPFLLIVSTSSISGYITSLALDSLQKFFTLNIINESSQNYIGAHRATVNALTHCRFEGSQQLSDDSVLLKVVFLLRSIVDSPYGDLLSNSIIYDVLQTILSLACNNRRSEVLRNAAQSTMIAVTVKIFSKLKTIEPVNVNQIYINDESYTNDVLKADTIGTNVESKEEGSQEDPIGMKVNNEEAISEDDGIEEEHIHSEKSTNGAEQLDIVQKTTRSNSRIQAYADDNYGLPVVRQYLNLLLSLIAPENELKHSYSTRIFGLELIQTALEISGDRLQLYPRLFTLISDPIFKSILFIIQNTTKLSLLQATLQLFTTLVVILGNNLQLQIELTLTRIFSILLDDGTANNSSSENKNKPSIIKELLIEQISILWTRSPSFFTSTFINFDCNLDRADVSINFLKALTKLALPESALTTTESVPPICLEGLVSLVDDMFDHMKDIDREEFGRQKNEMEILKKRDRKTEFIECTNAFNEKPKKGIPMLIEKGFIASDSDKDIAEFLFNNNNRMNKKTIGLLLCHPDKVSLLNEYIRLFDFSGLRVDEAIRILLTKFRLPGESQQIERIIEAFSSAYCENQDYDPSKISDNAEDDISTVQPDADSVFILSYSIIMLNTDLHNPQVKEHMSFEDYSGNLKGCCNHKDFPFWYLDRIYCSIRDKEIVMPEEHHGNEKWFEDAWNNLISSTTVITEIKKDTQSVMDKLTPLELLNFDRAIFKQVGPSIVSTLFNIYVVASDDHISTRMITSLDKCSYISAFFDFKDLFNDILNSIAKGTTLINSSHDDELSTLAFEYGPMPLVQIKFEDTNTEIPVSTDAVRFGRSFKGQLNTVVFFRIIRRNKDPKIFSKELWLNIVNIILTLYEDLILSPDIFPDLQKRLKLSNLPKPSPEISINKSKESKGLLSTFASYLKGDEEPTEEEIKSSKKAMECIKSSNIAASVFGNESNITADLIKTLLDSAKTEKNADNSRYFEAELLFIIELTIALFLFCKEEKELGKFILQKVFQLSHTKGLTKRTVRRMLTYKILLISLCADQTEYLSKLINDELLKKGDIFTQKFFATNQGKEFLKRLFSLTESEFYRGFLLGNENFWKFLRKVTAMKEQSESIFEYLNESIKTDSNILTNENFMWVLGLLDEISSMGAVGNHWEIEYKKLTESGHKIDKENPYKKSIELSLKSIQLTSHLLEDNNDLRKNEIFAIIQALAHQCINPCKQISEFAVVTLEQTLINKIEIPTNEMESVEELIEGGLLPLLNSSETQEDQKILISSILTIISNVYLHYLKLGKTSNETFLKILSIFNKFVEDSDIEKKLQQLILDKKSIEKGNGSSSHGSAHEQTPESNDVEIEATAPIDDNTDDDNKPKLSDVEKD

B1: S. cerevisiae full-length Gea2 with an N-terminal 6xHis-tag (natural protein, UniProt P39993 1-1459, looked up)
chain: T1 sequence (P39993 1-1459 partner)
notes: Gea2, S. cerevisiae, Arf guanine nucleotide exchange factor, 1459 residues, amplified from genomic DNA of BY4741, vector pMCSG21; Homodimer by mass photometry and cryo-EM; also called Gea2 dimer
B2: N-terminal 17-residue truncated Q72L Arl1 with a C-terminal 6xHis-tag (natural protein, S. cerevisiae, UniProt P38116 18-183, looked up)
chain: T1 sequence (P38116 18-183 Q72L)
notes: Arl1, S. cerevisiae, the N-terminal 17 residues (amphipathic helix) removed, Q72L keeps it GTP-restricted; vector pMCSG28; mixed with Gea2 in buffer with 1 mM GTP; also called ΔNT17 Q72L Arl1; Arl1-GTP

Tests used:
[1] = target: T1, ΔNT17 Q72L Arl1 in the Arl1–Gea2 complex; assay: cryo-EM structure ([…] Å); format: binding; details: 1 mM GTP, 1 mM MgCl2, 1 mM TCEP, HEPES pH 7.4, 4 °C; Arl1 nucleotide site; Gea2 bound
[2] = target: the molecule itself; assay: mass photometry; 44.2 nM Gea2, Refeyn TwoMP, calibrated with β-amylase and thyroglobulin
[3] = target: B1; assay: SEC; 0.74 μM Gea2 (monomer) with 10-fold molar excess of ΔNT17 Q72L Arl1, 20 mM HEPES pH 7.4, 150 mM NaCl, 1 mM MgCl2, 1 mM TCEP, 1 mM GTP, 4 °C overnight; Superose 6 Increase 10/300 GL; peak fractions on SDS-PAGE; details: both partners purified

Molecule: Nc1nc2c(ncn2[C@@H]2O[C@H](COP(=O)(O)OP(=O)(O)OP(=O)(O)O)[C@@H](O)[C@H]2O)c(=O)[nH]1 [GTP]
cryo-EM structure (3.3 Å) [1]: far away from the γ-phosphate of the bound GTP in our structure

Molecule: B1
stoichiometry N [2]: 2

Molecule: B2
binding result [3]: binds
